Laboratory results reported in paper PMC8740593.
Substitutions are numbered along the chain they refer to.

T1: QHB-DB (QHB/OsWOX5 DNA-binding domain) (Oryza sativa (rice), UniProt Q8W0F1 1-82)
T1 sequence: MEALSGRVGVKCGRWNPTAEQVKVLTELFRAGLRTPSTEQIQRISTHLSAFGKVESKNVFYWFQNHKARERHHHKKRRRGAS

B1: P3 (dsDNA)
DNA 1: GTAGATGGTACCCGCTGCAGTAAGCCTCCATTAAGCTTGAATTGCTGCTCCCTTGGGCGC
DNA 2: GCGCCCAAGGGAGCAGCAATTCAAGCTTAATGGAGGCTTACTGCAGCGGGTACCATCTAC
B2: Positive control (AGAMOUS intron) (dsDNA)
DNA 1: ATGTCTATTGGATTTATACCCAATGTGTTAATGGGTTGTTGACACATGTCACATGTCTGA
DNA 2: TCAGACATGTGACATGTGTCAACAACCCATTAACACATTGGGTATAAATCCAATAGACAT
B3: P1 (dsDNA)
DNA 1: AAAGATAATAAAAATGTTTATTTCGATGCATTAATTAGTTGTTAGAGTCTTTTGTTGTGT
DNA 2: ACACAACAAAAGACTCTAACAACTAATTAATGCATCGAAATAAACATTTTTATTATCTTT
B4: P2 (dsDNA)
DNA 1: TTTTATAATTAATCACTCCTTGCTGCTTAATCACCCAATTAATCACACCTGATCTACCCA
DNA 2: TGGGTAGATCAGGTGTGATTAATTGGGTGATTAAGCAGCAAGGAGTGATTAATTATAAAA
B5: M1 (Core 1 mutated) (dsDNA)
DNA 1: B4 DNA 1 with A7G, A8G, T9C, T10C, A11G, A12G
DNA 2: B4 DNA 2 with T49C, T50C, A51G, A52G, T53C, T54C
B6: M3 (Core 3 mutated) (dsDNA)
DNA 1: B4 DNA 1 with T39C, T40C, A41G, A42G
DNA 2: B4 DNA 2 with T19C, T20C, A21G, A22G

Target: T1, QHB-DB (QHB/OsWOX5 DNA-binding domain)
Test: EMSA

Row | Binder | binding result
1 | B1 | no binding
2 | B2 | binds
3 | B3 | no binding
4 | B4 | binds
5 | B5 | no binding
6 | B6 | no binding
